Target: GST-HA-ATG16L1(231–607), Q676U5
Assay: peptide microarray
Details: chain shown with the change; 800, 600, 400 nM; n = 9; read off a plot

Sequence of GST-HA-ATG16L1(231–607), Q676U5 (Q676U5 231-607): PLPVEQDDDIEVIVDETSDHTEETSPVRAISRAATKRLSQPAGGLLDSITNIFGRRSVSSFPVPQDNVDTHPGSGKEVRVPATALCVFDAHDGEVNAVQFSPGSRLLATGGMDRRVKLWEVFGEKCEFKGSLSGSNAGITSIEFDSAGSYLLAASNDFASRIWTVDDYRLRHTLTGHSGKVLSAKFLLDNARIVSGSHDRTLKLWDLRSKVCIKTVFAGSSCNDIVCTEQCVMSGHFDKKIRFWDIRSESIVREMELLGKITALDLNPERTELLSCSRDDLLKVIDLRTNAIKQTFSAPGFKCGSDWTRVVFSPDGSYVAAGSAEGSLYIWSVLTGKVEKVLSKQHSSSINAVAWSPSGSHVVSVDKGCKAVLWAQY

Row | percent of parent | Binder
1 | 110 % WT | YVPSELYGDL [TMEM59 peptide (residues 268–280), wild type, Q9BXS4 K273del; S275del; I276del]
2 | 160 % WT | YEKLSIYGDL [TMEM59 peptide (residues 268–280), wild type, Q9BXS4 V269del; P270del; S271del]
